Residue numbers refer to the chain shown, from its start. Numbers in names are those of the source.
T1: IL-18 receptors on HEK-Blue IL-18 reporter cells (UniProt Q13478 19-541; O95256 20-599, limits assumed)
T1 sequence (looked up) 1: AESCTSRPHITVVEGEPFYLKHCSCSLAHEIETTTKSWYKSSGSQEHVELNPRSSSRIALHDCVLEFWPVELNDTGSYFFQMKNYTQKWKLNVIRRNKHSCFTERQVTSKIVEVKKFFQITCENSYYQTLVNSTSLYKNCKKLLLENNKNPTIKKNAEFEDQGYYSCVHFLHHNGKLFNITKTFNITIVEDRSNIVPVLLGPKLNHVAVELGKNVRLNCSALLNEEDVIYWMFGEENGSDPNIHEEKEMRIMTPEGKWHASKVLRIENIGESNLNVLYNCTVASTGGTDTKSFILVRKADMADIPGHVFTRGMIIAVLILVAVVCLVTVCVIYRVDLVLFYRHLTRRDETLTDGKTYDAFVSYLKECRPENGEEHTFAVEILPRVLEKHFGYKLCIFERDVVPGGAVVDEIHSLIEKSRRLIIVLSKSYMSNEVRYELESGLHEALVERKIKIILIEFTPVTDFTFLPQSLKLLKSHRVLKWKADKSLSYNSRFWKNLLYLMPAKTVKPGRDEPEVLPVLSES
T1 sequence (looked up) 2: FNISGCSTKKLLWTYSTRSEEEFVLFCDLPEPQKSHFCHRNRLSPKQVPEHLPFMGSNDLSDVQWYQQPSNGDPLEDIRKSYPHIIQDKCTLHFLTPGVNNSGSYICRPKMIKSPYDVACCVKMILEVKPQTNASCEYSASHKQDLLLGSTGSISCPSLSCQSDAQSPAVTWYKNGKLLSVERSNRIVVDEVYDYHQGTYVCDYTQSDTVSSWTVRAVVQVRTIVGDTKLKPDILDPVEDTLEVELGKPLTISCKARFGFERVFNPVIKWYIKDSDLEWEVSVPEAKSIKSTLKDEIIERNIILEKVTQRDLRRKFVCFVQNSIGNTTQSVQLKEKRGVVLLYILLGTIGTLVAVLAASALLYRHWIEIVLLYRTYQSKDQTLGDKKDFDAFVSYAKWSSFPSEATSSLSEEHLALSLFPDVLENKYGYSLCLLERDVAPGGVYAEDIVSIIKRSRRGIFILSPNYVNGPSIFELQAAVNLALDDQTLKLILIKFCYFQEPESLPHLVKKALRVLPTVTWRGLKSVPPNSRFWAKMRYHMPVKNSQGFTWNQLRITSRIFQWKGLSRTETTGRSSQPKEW

T2: human IL-18 binding protein (human, UniProt O95998 31-194)
T2 sequence (looked up): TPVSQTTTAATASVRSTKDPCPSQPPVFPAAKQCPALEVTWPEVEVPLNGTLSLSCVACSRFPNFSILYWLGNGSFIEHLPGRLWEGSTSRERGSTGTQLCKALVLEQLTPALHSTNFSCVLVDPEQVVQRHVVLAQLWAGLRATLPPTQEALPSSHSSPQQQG

B1: yeast display IL-18 variant L5W, I22M, K53N, S55Y, Q56H (ligand)
chain: YFGKWESKLSVIRNLNDQVLFMDQGNRPLFEDMTDSDMRDNAPRTIFIISMYNDYHPRGMAVTISVKSEKISTLSSENKIISFKEMNPPDNIKDTKSDIIFFQRSVPGHDNKMQFESSSYEGYFLASEKERDLFKLILKKEDELGDRSIMFTVQNED
B2: yeast display IL-18 variant K53T, S55F (ligand)
chain: B1 chain with W5L, M22I, N53T, Y55F, H56Q
B3: yeast display IL-18 variant K53G, S55I (ligand)
chain: B1 chain with W5L, M22I, N53G, Y55I, H56Q
B4: yeast display IL-18 variant K53G, S55V (ligand)
chain: B1 chain with W5L, M22I, N53G, Y55V, H56Q
B5: yeast display IL-18 variant E6D, S36F, K53T, S55M, R58K (ligand)
chain: B1 chain with W5L, E6D, M22I, S36F, N53T, Y55M, H56Q, R58K
B6: yeast display IL-18 variant K53D, S55N (ligand)
chain: B1 chain with W5L, M22I, N53D, Y55N, H56Q
B7: yeast display IL-18 variant T34I, S36T, D40A, N41M, K53T, S55Y (ligand)
chain: B1 chain with W5L, M22I, T34I, S36T, D40A, N41M, N53T, H56Q

Experiments:
[1] = target: T1, IL-18 receptors on HEK-Blue IL-18 …; assay: cell-based or functional assay
[2] = target: T2, human IL-18 binding protein; assay: cell-based or functional assay

| Binder | HEK-Blue activity, No BP, DF-10000 [1] | HEK-Blue activity, No BP, DF-100,000 [1] | HEK-Blue activity, No BP, DF-1,000,000 [1] | HEK-Blue activity, +100 nM BP, DF-10000 [2] | HEK-Blue activity, +100 nM BP, DF-100,000 [2] | HEK-Blue activity, +100 nM BP, DF-1,000,000 [2] | Ratio (-BP/+BP), DF-10000 [2] | Ratio (-BP/+BP), DF-100,000 [2] | Ratio (-BP/+BP), DF-1,000,000 [2] |
| --- | --- | --- | --- | --- | --- | --- | --- | --- | --- |
| B1 | 0.75 | 0.21 | 0.13 | 0.72 | 0.23 | 0.21 | 1.05 | 0.91 | 0.61 |
| B2 | 0.67 | 0.2 | 0.16 | 0.6 | 0.18 | 0.25 | 1.12 | 1.09 | 0.64 |
| B3 | 0.59 | 0.14 | 0.09 | 0.76 | 0.19 | 0.13 | 0.77 | 0.73 | 0.7 |
| B4 | 0.56 | 0.15 | 0.1 | 0.57 | 0.15 | 0.1 | 0.98 | 1.01 | 1.03 |
| B5 | 0.48 | 0.14 | 0.09 | 0.5 | 0.14 | 0.09 | 0.96 | 1.02 | 0.96 |
| B6 | 0.45 | 0.13 | 0.09 | 0.47 | 0.12 | 0.09 | 0.95 | 1.05 | 1 |
| B7 | 0.38 | 0.18 | 0.14 | 0.37 | 0.12 | 0.12 | 1.03 | 1.45 | 1.18 |

Source: patent publication US20240182536A1 (MURAL ONCOLOGY, published 2024)
